The numbers were not newly measured in publication PMC6302113, which cites them from elsewhere.

This data set addresses IL-22 (Homo sapiens) (UniProt Q9GZX6).
UniProt Q9GZX6, sequence (Q9GZX6 34-179): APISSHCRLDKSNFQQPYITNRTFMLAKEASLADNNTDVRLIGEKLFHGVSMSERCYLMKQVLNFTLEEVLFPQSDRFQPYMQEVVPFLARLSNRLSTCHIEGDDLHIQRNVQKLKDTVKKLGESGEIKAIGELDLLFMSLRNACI

As a reminder, the Kd is the equilibrium constant for the complex coming apart. As to IL-22BPi2 (from UniProt Q969J5), the Kd was 1 pM.
